In test [1] the target is T1, mouse IGFBP7 displayed on cells (HEK293T or CHO-K1) (mouse, UniProt Q61581 26-281).
T1 construct: whole, on cells;domain: CD80 transmembrane domain; also called mIGFBP7; mIGFBP7-HEK cells; not shown: linker; CD80 transmembrane domain
T1 sequence (looked up): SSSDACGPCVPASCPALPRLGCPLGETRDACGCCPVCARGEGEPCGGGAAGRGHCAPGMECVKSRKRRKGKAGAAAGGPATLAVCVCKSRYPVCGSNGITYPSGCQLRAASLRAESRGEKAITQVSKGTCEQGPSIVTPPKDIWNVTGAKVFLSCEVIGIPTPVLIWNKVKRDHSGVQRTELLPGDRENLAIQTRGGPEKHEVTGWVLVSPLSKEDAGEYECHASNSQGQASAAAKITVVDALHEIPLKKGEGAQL
Briefly: FACS on mIGFBP7-expressing CHO-K1 cells (FIG. 5).

The target in test [2] is T2, human IGFBP7 displayed on HEK293T cells (human, UniProt Q16270 27-282).
T2 construct: domain: CD80 transmembrane domain; signal peptide stated as residues 1-26; also called hIGFBP7; hIGFBP7-HEK cells; not shown: linker; CD80 transmembrane domain
T2 sequence: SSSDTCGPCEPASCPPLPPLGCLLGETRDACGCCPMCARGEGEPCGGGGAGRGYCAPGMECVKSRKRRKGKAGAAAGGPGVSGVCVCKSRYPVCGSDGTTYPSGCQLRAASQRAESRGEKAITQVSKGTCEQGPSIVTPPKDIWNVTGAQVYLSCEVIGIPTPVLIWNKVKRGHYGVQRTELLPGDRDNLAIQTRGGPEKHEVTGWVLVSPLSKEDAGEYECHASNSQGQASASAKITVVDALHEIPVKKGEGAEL
Briefly: flow cytometry on hIGFBP7-HEK cells (FIG. 13). The protocol: (§1) After washing with FACS buffer, the cells were incubated with Alexa Fluor 488 conjugated anti-mouse IgG antibody (Jackson ImmunoResearch) for 30 minutes in 4° C. After washing with FACS buffer twice, the samples were acquired in NovoCyte Flow Cytometer and analyzed by NovoExpress software.

Test [3] concerns the target T3, cynomolgus IGFBP7 recombinant protein (cynomolgus).
T3 chain: T2 sequence with S13A, E215D
Briefly: BLI. In general terms: Biolayer interferometry detects binding as a change in optical thickness at a sensor tip.

In test [4] the target is T4, human IGFBP7 recombinant protein (UniProt Q16270 27-282, biotinylated with EZ-LINK NHS-PEG4 biotin in the BLI assays (sites not given)).
T4 chain: T2 sequence
Briefly: BLI.

The target in test [5] is T4, human IGFBP7 recombinant protein. Briefly: BLI.
Test [6] concerns the target T5, mouse IGFBP7 recombinant protein (mouse, UniProt Q61581 26-281, biotinylated with EZ-LINK NHS-PEG4 biotin in the BLI assays (sites not given)).
T5 chain: T1 sequence (looked up)
Briefly: BLI.

Test [7] addresses T1, mouse IGFBP7 displayed on cells …. Nature of the test: flow cytometry on mIGFBP7-HEK cells (FIG. 13). Here is the method: as §1
A general note: In flow cytometry, cells or beads pass a laser one at a time.

The target of test [8] is T5, mouse IGFBP7 recombinant protein. Nature of the test: BLI.
Test [9] concerns the target T4, human IGFBP7 recombinant protein. Briefly: BLI.
The target of test [10] is T5, mouse IGFBP7 recombinant protein. Briefly: BLI.
Test [11] addresses T6, mouse IGFBP7 recombinant protein (mouse, UniProt Q61581 26-281, limits assumed, biotinylated with EZ-LINK NHS-PEG4 biotin in the BLI assays (sites not given)).
T6 construct: Soluble protein in ELISA and BLI; also called mIGFBP7
T6 sequence (looked up): T1 sequence (looked up)
Briefly: BLI (Octet QKe), biotinylated IGFBP7 on streptavidin biosensors (FIG. 10). The protocol:
(§2) The binding affinity of anti-IGFBP7 nanobody Fc-fusion constructs (e.g., VHH-Fc-fusion constructs) were determined with bio-layer interferometry (BLI) using Octet QKe (Fortebio). Human, mouse, and cynomolgus IGFBP7 were biotinylated using EZ-LINK NHS-PEG4 biotin (Thermo Fisher Scientific). Streptavidin biosensors (ForteBio) were used to load biotinylated IGFBP7 protein (300 seconds in 5 μg/mL). Baseline was stabilized for 60 seconds in 1× kinetics buffer (ForteBio) before anti-IGFBP7 Fc-fucion proteins (serial dilution) were allowed to associate for 300 seconds with captured hIGFBP7 or mIGFBP7. Then the sensors were dissociated in 1× kinetics buffer for 600 seconds. Data analysis was performed on ForteBio Data Analysis HT 11.1 software.

Test [12] deals with T7, human IGFBP7 recombinant protein (human, UniProt Q16270 27-282, biotinylated with EZ-LINK NHS-PEG4 biotin in the BLI assays (sites not given)).
T7 construct: Soluble protein used for ELISA coating and, biotinylated, on streptavidin biosensors (Octet); also called hIGFBP7; biotinylated IGFBP7 protein
T7 sequence: T2 sequence
Nature of the test: BLI (Octet QKe), biotinylated IGFBP7 on streptavidin biosensors (FIG. 9). The protocol:
as §2

Consider 4 molecules from patent US20240150466A1 (DYNAMICURE BIOTECHNOLOGY, published 2024).

Where a chain is given by its changes, count along the chain named. Like-named read-outs stand apart in the source and are kept apart here.

B1: anti-IGFBP7 nanobody Fc-fusion construct derived from D4 (Fc isotype not told) (Fc fusion)
chain: VQLQESGGGLVQTGGSLRLSCAASGRSFTFSSYAMGWFRHAPGKEREFLTAITWSGDYTYYTDSVKGRSTISRDNAKNTVYLQLNNLKPEDTAVYYCAAKFSQVSAFFATVSEYEYWGQGTQVTVSS
notes: may be the same as D4-mIgG2a; not shown: mouse Fc fragment, mIgG2a or mIgG1
Take B1: the binding result in test [1] is “binds”.

B2: A1-mIgG2a nanobody Fc-fusion (Fc fusion)
chain: VQLQESGGGLVQAGGSLRLSCAASGSLFAIDKWGWYRQVAGNERELVAWRYSPVSINYGDSVKGRFTVSGDSSRKRVYLQMNSLKPDDTAVYRCAAVISGAWYWGQGTQVTVSS
notes: VHH fused with mIgG2a Fc fragment, expressed in Expi293 cells, Protein G purified; also called monoclonal A1-mIgG2a; monospecific A1-mIgG2a; not shown: mouse IgG2a Fc fragment (mIgG2a Fc)
One may read the Kd as the equilibrium constant for the complex coming apart. Regarding B2, the binding result in test [2], in [7], in test [11] and in [12] was “binds” each time. The Kd in test [3] turned out to be 2.41 nM; in test [4] it was 2.72 nM; in test [5], 3.7 nM; in test [6], 25.8 nM; in test [8], 60.1 nM; in [9] it was 2.72 nM. Also, the Kd in [10] was 25.8 nM.

B3: bispecific anti-IGFBP7 nanobody Fc-fusion construct A1-mIgG2a-D4 (bispecific antibody, V domains shown)
V domain 1: B2 chain
V domain 2: B1 chain
notes: also called A1-mIgG2a-D4-2; not shown: mouse IgG2a Fc fragment (mIgG2a Fc)
With B3, the binding result in [2], in test [7], in [11] and in test [12] was “binds” in each case. Also, the Kd was 0.195 nM in test [3]; 0.193 nM in test [4]; 1.74 nM in test [6]; 0.193 nM in test [9]; 1.74 nM in test [10].

B4: anti-IGFBP7 nanobody Fc-fusion construct derived from A1 (Fc isotype not told) (Fc fusion)
chain: B2 chain
notes: may be the same as A1-mIgG2a or A1-mIgG1; not shown: mouse Fc fragment, mIgG2a or mIgG1
For B4, the binding result in test [1] is “binds”.
